From the supplement of paper PMC9170038

Test system: K4 kissing-loop RNA reporter
Assay: apparent KD of K4 kissing-loop reporter; higher = weaker reporter binding
Details: Eterna round: R107
Method: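 RNA-MaP round R107: designed RNA switches with theophylline, tryptophan, arginine or FMN aptamers are transcribed on-chip within common flanks. They are titrated with a labelled K4 kissing-loop RNA reporter in RNA-MaP buffer (100 mM Tris pH 7.5, 80 mM KCl, 4 mM MgCl2), without ligand or with the indicated ligand. Median apparent KD per design.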

[1] = input ligand: theophylline 20 uM
[2] = input ligand: tryptophan 2.4 mM
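Note: bound reporter read as fluorescence of individual clusters on recovered sequencing chips by microscopy, with normalized cluster intensities fitted with a binding model.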

Sequence | apparent KD of K4 kissing-loop reporter (input ligand: FMN 200 uM) [µM] | apparent KD of K4 kissing-loop reporter (input ligand: arginine 13.2 mM) [µM] | apparent KD of K4 kissing-loop reporter (input ligand: none) [µM] | apparent KD of K4 kissing-loop reporter [1] [µM] | apparent KD of K4 kissing-loop reporter [2] [µM]
GUUACGCAUGGAAGGAGCGCACUCCGAUUGGGCGACACAGUGAUGUUGUGGUUCGUUCGAAUGCAGGUAGGUCGCCAUGUGUAAC [Ex Arginine B K4 20] | 0.181 | 0.153 | 0.14 | 0.153 | 0.142
GUUACGCAUGGAAGGAGCGCAGGCUCAACAAAUAGCUCAGUGAUGUUGAGCAAAUUAAAACUGCAGGUAGGUCGCCAUGUGUAAC [Ex Arginine B K4 22] | 0.399 | 0.399 | 0.508 | 0.371 | 0.422
GUUCUGAUGGAAACAUCGGAACAUACUGAUACCAGUAUCGAUAGAUACCCUUGGCAGCAGAAUCAGUAAUAACGAGUGAUGUUCG [Ex Theophylline A K4 2] | 0.275 | 0.247 | 0.293 | 0.273 | 0.257
UAACAGUCUACGGCCGCCACUGACAAUCGGCAAGCAACAUGUGGGUGCGUAGUGAUGUUACAUAUCAGGACCGGGUAAGACAAAU [theeternabot_sameState_KL_Trp_B_32] | 0.327 | 0.392 | 0.235 | 0.345 | 0.438
UAACGGCAACAAGGAUAUCCCAGUGAUGUUGGGAGAUAUUGACUAAGGAGACAUGAUAGGCAUAAUGGAGAAGGUGUGUUGGGAG [theeternabot_exclusion_KL_FMN_B_19] | 0.159 | 0.116 | 0.142 | 0.131 | 0.138
UAACUGCAGUGAUGUUGCAGAUGUCCUGACUAGGAUAUCAGGAAACUGAGAAGGAGUCCCUUCUACUGCAACAAGAAGGAGGACA [[K1]-[K2]-[F1]'-[F1]-[F2]-[F2]'-[K]'-[F]''_Design2] | 0.396 | 0.347 | 0.436 | 0.391 | 0.408
UAACUUGCAGUGAUGUUGCAAGAACUGGAUACCAGCAUGGAAACAUGCCCUUGGCAGCCAGAAGGUAUCCUCUUGCAUAGAUACU [Design3] | 0.216 | 0.178 | 0.195 | 0.22 | 0.192
UAAGAAUAAGUAGCAGUGAUGUUGCUACUACGAGGACCGGUACGGCCGCCACUCGAGCCGUACAAAGUAGCAACUAGUACGAAUA [(H1)-(H2)-(Trp1)-(Trp2)-(T)'-(H)'-(T)''] | 0.231 | 0.194 | 0.223 | 0.246 | 0.365
UAAGAAUAAGUAGCAGUGAUGUUGCUACUGCGAGGACCGGUACGGCCGCCACUCGAGUCCUCGAAACAUCACUGAACGAGGAAUA [whbob_SS_Tryp_A_m11] | 0.298 | 0.19 | 0.193 | 0.319 | 0.27
UAAGAGGACCACUACAAGAGUCCUCGAAUACGAGGACCGGUACGGCCGCCACUCGAUAACUUGUAGUGAUGUUGCAAGUAAGAAU [BrourdMod 2 - Jieux - Same State Tryptophan A] | 0.0804 | 0.0856 | 0.0853 | 0.0974 | 0.046
UAAGAUAUGAGGGAUACCAGCCAUAAGGAAAGUGUGAUGAGUGAUGUUCUGACAAGCCAAGGCCCUUGGCAGCUUUAAUAGCAUC [whbob_SS_Theo_B_th76] | 0.271 | 0.0808 | 0.164 | 0.218 | 0.203
UAAUCCUAAUGAUAAUAAUCAAGUGGUGGACGAGGACCGGUACGGCCGCCACUCGAAAAUGCAGUGAUGUUGUAAUACGGAUAAU [Exclusion - Tryptophan A (Freestyle 3)] | 0.288 | 0.46 | 0.372 | 0.541 | 0.247
UACAUCGAGCAGAGUGAUGUUUUGUGCGAUACCAGCAAGUGCAAGUGCCCUUGGCAGCGCAAGCGGUUGUAUGUAGGACCGGACG [theeternabot_exclusion_KL_Theo_A_21] | 0.433 | 0.647 | 0.657 | 0.964 | 0.432
UACAUUUUAUUAACACUAAAUACAACUGAAGGAGCGACAAUAAAGUCAGGUAGGUCGCAGAAUAAAUGAGUGAUGUUCAUUAUUG [JR_ExcArginiA_Sub016] | 0.0602 | 0.101 | 0.0638 | 0.0928 | 0.0512
UACGCUUACUUGCGCGGUCCGAUUAACGAUACCAGCGAAGAAGCCCGCCCUUGGCAGCGUUAUAGAGUGAUGUUCACGGAGAUUA [theeternabot_sameState_KL_Theo_A_12] | 1.1 | 0.872 | 0.989 | 1.07 | 0.874
UAGGAGUGAUGUUCCAUAUCUUGAGCCGAAGGAGCGCCUUUCUAGGCAGGUAGGUCGCGGCAGAAGGUACCAGUGAUGUUGGAAA [Same State Arginine A GF7] | 0.163 | 0.171 | 0.208 | 0.184 | 0.145
